Data reported in patent publication US20240109967A1.
“And” between values parts separate entries of the source, which are not always exact repeats. Identical values can stand only once. Like-named read-outs stand apart in the source and are kept apart here.

Experiments:
[1] = molecular target: feline CTLA-4 in feline CD5+ leucocytes (feline) (UniProt Q9XTA1); experiment: flow cytometry, feline PBMC, Surface labeling, anti-HA secondary alone, gated Lymphocytes>Single cells>Live>CD5+
[2] = molecular target: full length canine CTLA-4 on cells (KTδ32.cCTLA-4 cells; canine T cells and regulatory T cells) (canine) (UniProt Q9XSI1)
[3] = molecular target: full length canine CTLA-4 on cells (KTδ32.cCTLA-4 cells; canine T cells and regulatory T cells) (canine) (UniProt Q9XSI1); remark: listed apart in the source
[4] = molecular target: full length canine CTLA-4 on cells (KTδ32.cCTLA-4 cells; canine T cells and regulatory T cells) (canine) (UniProt Q9XSI1); remark: listed apart in the source
[5] = molecular target: feline CTLA-4 in feline CD5+ leucocytes (feline) (UniProt Q9XTA1)
[6] = molecular target: feline CTLA-4 in feline CD5+ leucocytes (feline) (UniProt Q9XTA1); remark: listed apart in the source

Substance	% of gated cells in the CTLA4 gate [1]	% of cells in the CTLA4(HA.APC) gate [2]	% of gated cells in Q5 (CTLA4+ CD4-) [3]	% of gated cells in Q6 (CTLA4+ CD4+) [3]	% of gated cells in the CTLA4 gate [4]	% of gated cells in the CTLA4 gate [5]	% of gated cells in the CTLA4 gate [6]
2nd only (anti-HA secondary alone)	3.8%						
irrelevant MERS mAb (antibody)		4.23% and 1.9%	0.014% and 4.28% and 0.42%	0.72% and 5.32% and 0.68%	8.33% and 0%	0.5%	0.13%
